{"source": "patent US20190040143A1", "target": "human HER3 on human cancer cell lines (human) (UniProt P21860)", "assay": "cell-based or functional assay"}
{"substance": "U1-59 anti-HER3 monoclonal antibody (International Patent Publication WO 2007077028)", "values": [{"measurement": "maximal extent of pHER3 suppression, Kato III cells", "result": 60, "unit": "%"}, {"measurement": "potency in pHER3 ELISA, HCC827 cells, against 2C2 (fold less potent)", "result": 10}]}
